Measurements as given in the nanobody polyreactivity screen of Harvey et al. (2022).

experiment: yeast display, Sf9 membrane polyspecificity reagent, FACS + sequencing; frameworks hold sequencing errors
In short: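 Synthetic nanobody libraries on Saccharomyces cerevisiae BJ5465 were galactose-induced for 36–48 hours, stained 1 hour at 4 °C with 10% biotinylated, detergent-solubilized Sf9 membrane reagent and enriched on streptavidin microbeads. FACS then separated cells into low and high (top ~1%) gates by anti-HA (expression) and streptavidin (reagent binding) fluorescence. Genes were colony-PCR amplified, MiSeq 2 × 250 sequenced and CDR-length filtered. A clone's polyreactivity label is that of its gate of origin.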

| Sequence | polyreactivity (PSR sort gate) |
| --- | --- |
| QVQLVESGGGLVQAGGSLRLSSAASARIFFKNTKGWYRPAPGKERELVAAITSSGSSTYYADSVKGRFTISRDNAKKTVYLQMNSLKPEDTAVYYCNALTWDHSRTGVDYWGQGTQVTVSS | low polyreactivity |
| QVHLVESGGGLVQAGGSLRLSCAASGSIFNLYGMGWYRQAPGKERELVASITSSGTRTYYADSVKGRFTISRDNAKNTVYLQMNSLKPEDTAVYYCAAGSYLRSNRGYWGQGTQVTVSS | high polyreactivity |
| QVQLVESGGGLVQAGGSLRLSCAASGRTFFPNAMGWSRQAPGKERELVASITSRGGGTYYADSVKGRFTISRDNAKKTVYLQMNSLKPEDTAVYYCAADRYYFSPGYNWWSEGYDYWGQGTQVTVSS | low polyreactivity |
| HAQLQDSGGGLVQAGGSLRLSCAASGNISSEYYMGWGRQAPGSGREFVAAIDYGGTTNYADNVKGRFTISRDNAKNTVYLQMNSLRPEDTAVYYCAASCDTIGLFAYWGQGTQVTVIS | high polyreactivity |
| QVQLVESGGGLVQAGGSLRLSCDASGSTFRWYTMGWYRPAPGKEREVVATISRSGGSTYNADSVKGRFTISRDNAKNTVYLQMNSLKPEDTAVYYCNKLGVSTHSYKYYYWGQGTQVTVSS | high polyreactivity |
| QVQLVESAGGLVQAGGSLRLICAASGSTFTYYPMGWYRQAPGKERELVAAISGSGGRTYYADSVKGLFTISRDNAKNTVYLQMNSLKPEDTAVYYCNARATSLVPGRPKQYTYYYWGQGTQVTVSS | high polyreactivity |
| QVQLVESGGGLVQAGGSLRLSCAASGFIFVYYAMGWYRQAPGKERELVAAISRASSTSYADSVKGRFTISRDNAKNTVYLQMISLKPEDTAVYYCAAVYYGGFSDYDYWGQGTQVTVSS | low polyreactivity |
| QVQLVESGGGLVQAGGSLRLSCAASGSILVYYAMGWYRQAPGKERELVAAISSGGSTNYADSVKGRFTISRDNAKNTVYLQMNSLKPEDTAVYYCAKESGWVGAIHYDYWGQGTQVTVSS | low polyreactivity |
| QVQLVESGGGLVQAGGSLRLSCAASGRTFGKYTMGWYRQAPGKQRELFAAINRRGGSTYYADSVKGRFTISRDNANNTVYLQMNSLKPEDTAVYYCSTDGYSIDRYYWGQGTQVTESS | high polyreactivity |
| QVHLVESGGGLVQAGGSLRLSCAASGSIFAYYAMGWYRQAPGKEWEVVAAINWRVGRTYYADSVNGRFTISRDNAKNTVYLQMNSLKPEDTAVYYCAAVYRNQYRGSRFDYWGQGTQVTVSS | high polyreactivity |
| QVQLVESGGGLVQAGGSLRLSCAASGSIFYSNAMGWYRQAPGKERELVAAIHWSGGSTYYADSVKGRFTISRDNAKNTFYLLMNSLKPEDTAVYYCAADYGWGPIYDYWGQGTQVNVSS | low polyreactivity |
| QVQLVESGGGLVQAGGSLRLSCAASGRIFWANAMGWYRQATGKERELVAAITGSGRTYYADSVKGRFTISRDNAKNTVYLQMISLKREDTAVYYCAAVTYYELAQGYGYWGQGTQVTVSS | high polyreactivity |
| QVQLVESGGGLVQAGGSLRLSCAASGNIFGSYAMGWYRQAPGKERELVAAIRTSGGSTYYADSVKGRFTISRDNAKNTVYLQMNSLKPEDTAVYYCATRSRTTKIVRWPGMYYWGQGTQVTVSS | high polyreactivity |
| QVQLVESGGGLVQAGGSLRLSCAASGSTSRINAMGWYRQAPGKERELVAGIRANGGRTYYADSVKGRFTISRDNAKNTVYLQMNSLKPEDTAVYYCNKRNWPAEDSWGQGTQVTVSS | high polyreactivity |
| QVQLVESGGGLVQAGGSLRLSCAASGRIFRENAMGWYRQAPGKERELVAAISSGGSTYYADSVKGRFTISRDNAKNTVYLQMNSLKPEDTAVYYCAADLSWSRVVFGDYDYWGQGTQVTVSS | low polyreactivity |
| QVQLVESGGGLFHAGGSLRLSFAASGSILYNAMGWYRQAPGKERELVAAIDSTSVDTYYADSVKGRFTISRDNAKNTVYLQMNSLKPEDTAVYYCSADYVYDDEGDFWGQGTQVTVSS | high polyreactivity |
| QVQLVESGGGLVQAGGSLRLSCAASGSIFGYYAMGWYRQAPGKERELVATISNDGSTKYADSVKGRFTISRDNAKNTVYLQMNSLKPEDSAVYYCAADSARHGRDTYQPEYRNDYWGQGTQVTVSS | low polyreactivity |
| QVQLVESGGGLVQAGGSLRLSCAASGSIFAPYAMGWYRQAPGKERELVATISSIGTSTYYADSVKGRFTISRDNAKNTVYLQMNSLKPEDTAVYYCAADQSGGYPDNYWGQGTQVTVSS | low polyreactivity |
| QVQLVESGGGLVQAGGSLRLSCAASGINISWYAMGLYRQAPGKERELVAAISRRGGRTYYADSVKGRFTSSRDNAKNTVYLEMKSMLPEDTAVYYCAVVERQVPGPADGSVQVYYYWGQGTQVTGSS | high polyreactivity |
| QVQLVESGGGLVQAGGSLRLSWAASGSTFVVYAMGWYRQAPGKERELVAAIDLSVGDTYYADSVKGRFTISRDNAKNTVFVQMNILKPEDTAVYYCAAEFYSYKYPDYDYWGQGTQVTVSS | low polyreactivity |
| QVQLVESGGGLVQAGGSLRLSGAASGNIFDNYAMGWYRQAPGKERELVAAITWSGGSTYYADSVKGRFTISRDNAKNTVYLQMNSLKPEDTAVYFCNTDYNHVFAYDHWGQGTQVTVSS | low polyreactivity |
| QVQLVESGGGLVQAGGSLRLSCAASGSIFSYYAMGWSSQAPGKERELVAAISKRGASTYYADSVKGRFSISRDIAKNTVYLQMNSLKPEDTAVYYCAAYRQGSAYDYWGKGTQVTVSS | high polyreactivity |

| Sequence | polyreactivity (PSR sort gate) |
| --- | --- |
| QVQLVESGGGLVQAGGSLRLSCAASGRIFFYYVMGWYRQAPGKERELVAAITRSGGSTYYADSVKGRFTISRDNAKNTVYLQMNSLKPEDTAVYYCAVGDGFEYDWGQGTQVTVSS | low polyreactivity |
| QVQLVESGGGLVQAGGSLRLSCAASGSTFGSYARGWYRPAPGKERELVAAISRTGGSTRYADSVKGRFTISRDNAQNSVYFQMNSLKPEDSAVYYCNARLSSYSTIRGVYWGQGTQVTVSS | high polyreactivity |
| QVQLVESGGGLVPAGGSLRLSCAASGSNFYWYVMGWYRQAPGKERELVADIRYSPGRTYYADSVKGRFTISRDNAKNTVYLQMNSLIPEDTAVYYCKARRRLFTVDFDYWGQGTQVTVSS | high polyreactivity |
| QVQLVESGGVLVQAGGSLRLSCAASGSAFRENDMGWYRQAPGKERELVAAITFSGGSTYADSVKGRFTISRDIAKNTVYLQMNSLKPEDSAVYYCSADTLPAEYEYDYWGQGTQVTVSS | low polyreactivity |
| QVQLVESGGGLVQAGGSLRLSCAASGSIFSWYAMGWYRQAPGKERELVAAISNAGRTYYADSVKGRFTISRDNAKNTVYLQMNSLKPEDTAVYYCAAAGPRQGNYGGYEYWGQGTQVTVSS | high polyreactivity |
| QVQLVESGGGLVQAGGSLRLSCAASGRTFRSYAMGWYRQAPGKERELVAAIRGGGGRTHYADSVKGRFTISRDNAKNTVYLQMNSLKPEDTAVYYCAAGRPYLESKLYDYWGQGTHVTVSS | high polyreactivity |
| QVQLVESGGGLVQAGGSLRLSCAASGRTLIDNAKGWYRPAPGKERELVASISITNTYYADSVKGRFTISRDNAKNTVYLQMNSLKPEDTAVYYCNAEARPRGVDVEEAYFRYDYWGHGTQVTVSS | low polyreactivity |
| QVWLQESGGGLVQACGSLRLSCAASGTISRDIFMGWYRQAPGKEREFVATIAQGGITNYADSVKGRFTISRDNAKNTVYLQMNSVKPGDTAVYYCAARDGNCYWFYYGGQGTQVTVSS | high polyreactivity |
| QVQLVESGGGLVQAGGSLRLSCDASGLTFPYYTMGWYRQAPGKERELVADINGSGGSTYYADSVKGRFTISLDNAKNTFYLQMNSLKPEDTEVYYCAAGSWQVAISYDYWGQGTQVTVSS | low polyreactivity |
| QVQLVESGGGLVQAGGSLRLSCAASGRIFTYYAMGWYRQAPGKERELVATISSSGSTNYADSVKGRFTISRDNAKNTVYLQMNSLKPEDTAVYYSAKKTRRRYDVKYDYWGQGTQVTVSS | low polyreactivity |
| QVQLVESGGGLVQAGGSLRLSCAASGSTFGYYAMGWYRQAPGKESELVAAISAGGGSTYYADSVKGRFTISRDNAKNTVYLQLNSLKPEDTAVYFCAARRPHMPVKTYDYWGQGTLVTVSS | high polyreactivity |
| QVQLVESGGGLVQAGGSLRLSCAASGIIFQRNAMGWYRQAPGKERELVAAISASGGSTNYADSVKGRFTISRDNAKNTVYLQMNSLKPEDTAVYYCAVPARGTFLLRDGGRAEFDYWGQGTQVTVSS | low polyreactivity |
| QVQLVESGGGLVQAGGSLRLSCAASGRIFIRNAMGWYRQAPGKERELVAAITWSGGGTYYADSVKGRFTISRDNAKNTVYLQMNSLKPEDTAVYYCNVDITGYEDDYWGQGTQVTVSS | low polyreactivity |
| QVQLVESGGGLVQAGGSRRLSFAASGFTFKYYAMGWYRQAPGKERELVDAISRRGGSTSYADSVKGRFTISRDNAKNTVYLKMNSLKPEDTSVYYLAADSSFERSSDYWGQGTQVTVSS | high polyreactivity |
| QVQLVESGGGLVQAGGSLRLSCAASGRTFVSNAMGWYRQAPGKERELVAAISFSGDSTYYADSVKGRFTISRDNAKKTVYLQMNSLKPEDTAVYYCRFYSYWSWLGREYDYWGQGTQVTVSS | low polyreactivity |
| QVQLVESGGGLVQAGGSLRLSFAASGLIGRYAMGWYRQAPGKERELVAVITSGDSTYYADSVKGRFTISRDNAKNTVYLQMNSLKQEDTAVYYCAADSYRRWGNLFTGNEYDSWGQGTQVTVSS | low polyreactivity |
| QVQLVESGGGLVQAGGSLRLSCAASGFIFWWYAMGWYRQAPGKERELVASISWSGGSTYYADSVKGRFTISRDNAKNTVYLQMNSLKPEDTAVYYCAASRARTIPGPHTNFNYWGQGTQVTVSS | high polyreactivity |
| QVQLVESGGGLVQAGGSLRLSWAASGFTFSVYAMGWYRQAPGKERELVAAISSGGSTNYADSVKGRFTISRDNAKITVYFQMNSLKPEDTAVYYCADSITVGYSNYYYWGQGSQVTVSS | high polyreactivity |
| QVQLVESGGGLVQAGGSLRLSCAASGYTFASNAMGWYRPAPGKERELVAAITRGGSTNYADSVKGRFTISRDNAKNTVYLQMNSLKPEDTAVYYFAAPRYRHTRKGGYWGQGTQVTVSS | low polyreactivity |
| QVQLVESGGGLVQAGGSLRLSCAASGNTFYGYAMGWYRQAPGKDRELVASITLSGDSTYYADSVKGRFTISRDNAKNTVYLQMNSLKQEDTAVYYCAGVYTYPLGYYHYTYDYWGQGTQVTVSS | low polyreactivity |
| QVQLVESGGGLVQAGGSLRLSCSASGSTFYVYAMGWYRQAPGKERELVAAITDSGGSTYYADSVKGRFTISRDNAKNTVYLQMNILKPEDTAVYYCAREYTYRYHYYYWGQGTQVTVSS | low polyreactivity |
